Data on 66 sequences can be found in the supplement of paper PMC10126150.

± gives the standard deviation of the averaged measurements.
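Note: ATP exposure 15 min at 22 °C before imaging.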

For this data set, the system named is ATP. The data set is described as follows: switch fluorescence ratio, 500 uM ATP over buffer (Cy3 cluster intensity, sum of 5 cycles each) (fold (ratio)); higher = stronger signal-on switching upon ATP binding; sequences stand for … in TCGTCGGCAGCGTCAGATGTGTATAAGAGACAGTTTTTTTTTTTTTTTTTTTTTTTTT…TC. Particulars: aptamer strand: ATP DNA aptamer (quencher-CACCTGGGGGAGTATTGCGGAGGAAGG + anchor), 100 nM annealed; ATP concentration: 500 uM. The method in brief: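 Cy3-labelled switching-strand clusters on a modified Illumina MiSeq flow-cell were annealed to 100 nM quencher-labelled ATP aptamer and imaged first in selection buffer, then after 15 min with 500 uM ATP at 22 °C. NaOH stripping and re-annealing separated each of five buffer/ATP cycles, and clusters outside 100-1000 RFU were excluded. The fluorescence ratio sums target-cycle Cy3 intensity over buffer-cycle Cy3 intensity per cluster and averages it per switch-domain sequence.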
Turning to TAATTTTTAA, the switch fluorescence ratio was found to be 0.99 ± 0.029.
In the case of ATAGTTGGGG it was 1.02 ± 0.045; in that of CTGAAAACTA, 1.02 ± 0.059; in that of AATGGTGATT, 1.02 ± 0.046.
In the case of GATATACTTT it was 0.99 ± 0.027; in that of ATTTGCGTTT, 0.999 ± 0.019; in that of GAAATACGCT, 1.08 ± 0.022.
As for TAGGGGGCGG, the switch fluorescence ratio worked out at 0.988 ± 0.03.
As for GAAAACGGGG, the switch fluorescence ratio turned out to be 1.01 ± 0.02.
For GTCGTAAGAG, the switch fluorescence ratio amounted to 0.98 ± 0.041.
Next, TAAGGACGAG: 1.02 ± 0.013.
In the case of TATTATGACC it was 1.01 ± 0.043.
Next, AAAAGAGGCA: 1.02 ± 0.025; ACGGGATATA: 1.02 ± 0.058; CGGGGTGCAC: 1.05 ± 0.023.
In the case of GTCGTGCCTG, the switch fluorescence ratio was 1.04 ± 0.15.
In the case of CATATCATGG it was 0.988 ± 0.037.
Next, AGCCGGTTCC: 1.014 ± 0.0092; GGTTTAATTG: 1.026 ± 0.0085; TCACGCTTCA: 1.12 ± 0.033.
In the case of GGGATGTGTT it was 0.9635 ± 0.0069.
For TTTCTCAGTG, the switch fluorescence ratio was 0.969 ± 0.011.
With CGTGACGGTA, the switch fluorescence ratio amounted to 1.042 ± 0.0014.
Next, TTTACAGTTG: 0.96 ± 0.014; TTCGGGTCCT: 1.02 ± 0.031.
With GCCGTGTAGA, the switch fluorescence ratio worked out at 1.05 ± 0.021.
Regarding AGCGGAGTTT, the switch fluorescence ratio came out at 0.984 ± 0.031.
In the case of AGTAAGGTGT it was 1.13 ± 0.095.
For the sequence TGCGGGGCTT, the switch fluorescence ratio came to 0.997 ± 0.048.
Next, ATTAAGATGT: 1.002 ± 0.0049.
In the case of AGGGTTTGGG it was 1.01 ± 0.038; in that of ATATGGAATT, 0.977 ± 0.0046; in that of ACAGGGGTTA, 1.25 ± 0.4.
GGTGGCAAGG: the switch fluorescence ratio was determined as 0.9912 ± 0.0094.
In the case of GAGGTTGCGG it was 0.96 ± 0.036.
Next, TTGTTCGACT: 1.02 ± 0.016; AACATATCGG: 1.02 ± 0.029.
Next, TTATGACCAG: 1.009 ± 0.0095; GGTCCAAAAT: 0.9848 ± 0.0089.
Take CAGAGTGGGA: the switch fluorescence ratio was 1.03 ± 0.016.
Next, GGTAAATGTG: 1.03 ± 0.072.
With CATTAAGGGC, the switch fluorescence ratio came out at 0.962 ± 0.04.
As for CATAAGGGTG, the switch fluorescence ratio was 1.09 ± 0.038.
In the case of AAGAGCTAGT it was 1 ± 0.013; in that of TCCATTAGGA, 0.9978 ± 0.0082.
For GATAGTGAGT, the switch fluorescence ratio turned out to be 0.988 ± 0.016.
Next, GTTAGTATAT: 1 ± 0.018; TGGACAATGG: 1.03 ± 0.051.
For the sequence GGGGGGACAG, the switch fluorescence ratio came out at 1 ± 0.037.
AATAAAAGGG: the switch fluorescence ratio stood at 1 ± 0.03.
Next, GAGGGGTATC: 0.96 ± 0.045; AAAGAAAAGG: 0.989 ± 0.0065; GCAGACGGTG: 1.05 ± 0.013.
Next, CAATTGCCCA: 1.014 ± 0.0079.
For ACCGTATGAC, the switch fluorescence ratio worked out at 1.05 ± 0.068.
In the case of GGGAAAATAG it was 0.99 ± 0.012.
Next, GCTTTTCTTG: 1.01 ± 0.011; ATCCGTGTCG: 1.02 ± 0.048.
Regarding CAAGGAGATG, the switch fluorescence ratio is 1.01 ± 0.046.
In the case of TTCTAGTTGA it was 0.991 ± 0.022; in that of GAAATGGTAG, 0.99 ± 0.025; in that of AGCTAGCGTT, 0.997 ± 0.024.
As for ATGCATTGCG, the switch fluorescence ratio was determined as 0.99777 ± 0.00081.
With GGGTAACCGA, the switch fluorescence ratio turned out to be 0.9832 ± 0.0019.
Next, GCTTAATGTG: 0.968 ± 0.027; GGGAGAGGCG: 0.984 ± 0.013.
